Results reported in article PMC8004985, “Affinity Purification of Angiotensin Converting Enzyme Inhibitory Peptides from Wakame (Undaria Pinnatifida) Using Immobilized ACE on Magnetic Metal Organic Frameworks” (Marine Drugs, 2021).

How the values were obtained:
[1] = Enzyme characterisation of free and immobilized ACE (optimum pH, temperature, Ea, Km, Vmax); format: biochemical, pig
Experimental: (§1) The ACE was prepared from pig lung and the precipitates were dialyzed and used as a crude enzyme sample for the immobilization of ACE [6]. Twenty-five milligrams of Fe3O4@ZIF-90 nanoparticles were dispersed in 2 mL of crude sample, and incubated with shaking for a certain time at different temperatures to immobilize the ACE. The immobilized ACE (Fe3O4@ZIF-90-ACE) was magnetically recovered and the precipitate was washed several times by 0.1 M phosphate (PBS) buffer until the supernatant was free of protein. Immobilized ACE was quantified using the Bradford method, which used bovine serum albumin (BSA) as the standard. Finally, the obtained immobilized ACE was stored at −80 °C. Enzyme loading capacity was calculated using Equation (1):(1) Enzyme loading capacity(mg⋅g^−1)=(Total protein content-supernatant protein content) /Total mass of Fe3O4@ZIF-90
(§2) ACE activity was evaluated by measuring the amount of hippuric acid (HA). The assay mixture (0.3 mL) consisted of 130 µL BBS buffer pH 8.3 ([…], containing 0.3 M NaCl), 40 µL HHL (5 mM), and different amounts of the free and immobilized ACE. Incubation was carried out at 37 °C for 10 min and was terminated by addition of HCl (0.1 mL, 1 M). The HA content of the mixture was determined by RP-HPLC (Agilent 1260) at 228 nm with a DAD detector. One unit of ACE enzyme activity (U) was defined as the amount of enzyme catalyzing HHL to generate 1 µM of HA per minute under the experimental conditions.

[2] = Enzymatic stability and reusability of free and immobilized ACE; format: biochemical, pig
Experimental: as §1
To determine thermal stability, the immobilized ACE was dispersed in PBS buffer in the absence of the HHL substrate at 20–60 °C for 1 h. […]
The storage stability of immobilized ACE was determined by storing at −20 °C for 30 days. The enzyme activity was then measured, and the relative activity was compared with that of the untreated ACE. The immobilized ACE was evaluated over six successive cycles to investigate the reusability stability; the first-time detection activity was considered as 100%.
as §2

[3] = HHL substrate, Table S2, Lineweaver-Burk

B1: free ACE: free angiotensin-I-converting enzyme (protein, UniProt P12821 30-1306, looked up)
Angiotensin-converting enzyme: LDPGLQPGNFSADEAGAQLFAQSYNSSAEQVLFQSVAASWAHDTNITAENARRQEEAALLSQEFAEAWGQKAKELYEPIWQNFTDPQLRRIIGAVRTLGSANLPLAKRQQYNALLSNMSRIYSTAKVCLPNKTATCWSLDPDLTNILASSRSYAMLLFAWEGWHNAAGIPLKPLYEDFTALSNEAYKQDGFTDTGAYWRSWYNSPTFEDDLEHLYQQLEPLYLNLHAFVRRALHRRYGDRYINLRGPIPAHLLGDMWAQSWENIYDMVVPFPDKPNLDVTSTMLQQGWNATHMFRVAEEFFTSLELSPMPPEFWEGSMLEKPADGREVVCHASAWDFYNRKDFRIKQCTRVTMDQLSTVHHEMGHIQYYLQYKDLPVSLRRGANPGFHEAIGDVLALSVSTPEHLHKIGLLDRVTNDTESDINYLLKMALEKIAFLPFGYLVDQWRWGVFSGRTPPSRYNFDWWYLRTKYQGICPPVTRNETHFDAGAKFHVPNVTPYIRYFVSFVLQFQFHEALCKEAGYEGPLHQCDIYRSTKAGAKLRKVLQAGSSRPWQEVLKDMVGLDALDAQPLLKYFQPVTQWLQEQNQQNGEVLGWPEYQWHPPLPDNYPEGIDLVTDEAEASKFVEEYDRTSQVVWNEYAEANWNYNTNITTETSKILLQKNMQIANHTLKYGTQARKFDVNQLQNTTIKRIIKKVQDLERAALPAQELEEYNKILLDMETTYSVATVCHPNGSCLQLEPDLTNVMATSRKYEDLLWAWEGWRDKAGRAILQFYPKYVELINQAARLNGYVDAGDSWRSMYETPSLEQDLERLFQELQPLYLNLHAYVRRALHRHYGAQHINLEGPIPAHLLGNMWAQTWSNIYDLVVPFPSAPSMDTTEAMLKQGWTPRRMFKEADDFFTSLGLLPVPPEFWNKSMLEKPTDGREVVCHASAWDFYNGKDFRIKQCTTVNLEDLVVAHHEMGHIQYFMQYKDLPVALREGANPGFHEAIGDVLALSVSTPKHLHSLNLLSSEGGSDEHDINFLMKMALDKIAFIPFSYLVDQWRWRVFDGSITKENYNQEWWSLRLKYQGLCPPVPRTQGDFDPGAKFHIPSSVPYIRYFVSFIIQFQFHEALCQAAGHTGPLHKCDIYQSKEAGQRLATAMKLGFSRPWPEAMQLITGQPNMSASAMLSYFKPLLDWLRTENELHGEKLGWPQYNWTPNSARSEGPLPDSGRVSFLGLDLDAQQARVGQWLLLFLGIALLVATLGLSQRLFSIRHRSLHRHSHGPQFGSEVELRHS
loss of relative activity between 35°C and 50°C ([1]; 35°C to 50°C): > 40% | Ea (activation energy) ([1]; Arrhenius equation, Fig. S5 (c)): 8.535 kcal/mol | Optimum pH ([1]; Fig. S5 (a)): 8.3 | optimum temperature ([1]; Fig. S5 (b)): 40 °C | Km [1, 3]: 1960 µM | Vmax [1, 3]: 46.296 mmol/min | catalytic efficiency ([1]; Table S2): 23.596 | activity lost on storage ([2]; 30 days, −20 °C): 45.04% | residual activity (thermal stability) ([2]; after heating at 60 °C for 1 h, PBS buffer, absence of HHL): 22.03% | relative activity (pH stability) ([2]; pH 5.0–10.0 (method: pH 5.0–9.0), 1 h): 37.05%
